Assay in all cases: cell-based or functional assay
One experiment has as its target T1, activin A (human) (UniProt P08476).
T1 sequence: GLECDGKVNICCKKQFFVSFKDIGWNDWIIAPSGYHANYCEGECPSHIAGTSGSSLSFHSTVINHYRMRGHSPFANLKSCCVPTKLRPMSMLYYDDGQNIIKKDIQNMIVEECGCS

Experiment [1] concerns the target T2, myostatin (Homo sapiens (Human)) (UniProt O14793).
T2 sequence: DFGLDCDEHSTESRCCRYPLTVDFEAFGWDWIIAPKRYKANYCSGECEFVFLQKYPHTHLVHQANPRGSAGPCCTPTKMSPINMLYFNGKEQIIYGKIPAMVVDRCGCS

The target in experiment [2] is T3, GDF11 (Growth Differentiation Factor 11) (Homo sapiens (Human)) (UniProt O95390).
T3 sequence: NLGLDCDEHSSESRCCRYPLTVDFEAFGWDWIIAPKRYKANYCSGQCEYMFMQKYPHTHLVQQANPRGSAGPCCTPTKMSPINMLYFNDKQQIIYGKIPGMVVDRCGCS

Chain of VGFR(½)-hFc (Aflibercept) (Fc fusion) (chain): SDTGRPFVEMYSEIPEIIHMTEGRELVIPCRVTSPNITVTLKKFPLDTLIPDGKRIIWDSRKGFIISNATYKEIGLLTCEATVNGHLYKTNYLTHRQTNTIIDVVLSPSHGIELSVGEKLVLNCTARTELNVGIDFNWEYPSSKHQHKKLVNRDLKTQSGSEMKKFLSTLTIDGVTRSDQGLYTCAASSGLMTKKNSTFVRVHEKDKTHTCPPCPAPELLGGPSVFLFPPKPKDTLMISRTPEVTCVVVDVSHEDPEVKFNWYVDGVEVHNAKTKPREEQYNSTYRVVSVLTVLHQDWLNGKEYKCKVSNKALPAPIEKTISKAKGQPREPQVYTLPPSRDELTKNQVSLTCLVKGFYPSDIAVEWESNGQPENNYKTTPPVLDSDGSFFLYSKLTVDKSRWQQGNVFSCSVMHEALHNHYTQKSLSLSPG

As for “FSD1 (E126A) (single entity produced in E. coli) (from UniProt P19883 93-165)”, the neutralization of activin A signaling (pSmad2/3 luciferase reporter bioassay, HEK293) with activin A (human) is greater than 822 nM. Besides, the neutralization of myostatin signaling (pSmad2/3 luciferase reporter bioassay, HEK293) in experiment [1] was greater than 822 nM.
For “FSD1 (Q124A) (single entity produced in E. coli) (from UniProt P19883 93-165)”, the neutralization of activin A signaling (pSmad2/3 luciferase reporter bioassay, HEK293) with activin A (human) is greater than 822 nM. Further, the neutralization of myostatin signaling (pSmad2/3 luciferase reporter bioassay, HEK293) in experiment [1] was greater than 822 nM.
“FSD1 (Q124A, E126A) (single entity produced in E. coli) (from UniProt P19883 93-165)” returned a neutralization of activin A signaling (pSmad2/3 luciferase reporter bioassay, HEK293) in the experiment with activin A (human) greater than 822 nM. In experiment [1], this substance came in with a neutralization of myostatin signaling (pSmad2/3 luciferase reporter bioassay, HEK293) greater than 822 nM.
On to TNFR2-hFc (Etanercept) (Fc fusion), for which, in the experiment with activin A (human), the neutralization of activin A signaling (pSmad2/3 luciferase reporter bioassay, HEK293) was greater than 8.2 nM. Also, the neutralization of GDF11 signaling (pSmad2/3 luciferase reporter bioassay, HEK293) in experiment [2] is greater than 8.2 nM. Further, the neutralization of myostatin signaling (pSmad2/3 luciferase reporter bioassay, HEK293) in experiment [1] is greater than 8.2 nM.
For VGFR(½)-hFc (Aflibercept) (Fc fusion), in experiment [2], the neutralization of GDF11 signaling (pSmad2/3 luciferase reporter bioassay, HEK293) was greater than 8.2 nM. In addition, in experiment [1], the neutralization of myostatin signaling (pSmad2/3 luciferase reporter bioassay, HEK293) is greater than 8.2 nM.

The values above are taken from US20260209291A1.
